From US20170291930A1 (UNIVERSITY OF MARYLAND BALTIMORE, published 2017)
No end group written: not given here.

Molecular target: purified recombinant Sap9 (C. albicans secreted aspartic protease 9) (Candida albicans)
Test: cell-based or functional assay

Row | Binder | intact peptide remaining after 2 h with 6.25 ug/mL Sap9 [%] | intact peptide remaining after 2 h at 37 C with 3.13 ug/mL Sap9 (gel densitometry) [%]
1 | DSHAKRHHGYRRKFHEKHHSHRGY [Hst-5 synthetic peptide K11R] | 20 | –
2 | DSHAKRHHGYKRKFHERHHSHRGY [Hst-5 synthetic peptide K17R] | > 60 | 82
3 | DSHARRHHGYKRKFHEKHHSHRGY [Hst-5 synthetic peptide K5R] | 4.5 | –
4 | DSHAKRHHGYKRKFHEKHHSHRGY (also: hydrochloride salt) [parent Hst-5 peptide (Histatin-5)] | – | 47
5 | DSHAKRHHGYKRKFHELHHSHRGY [Hst-5 synthetic peptide K17L] | > 60 | 77
